One molecule from publication PMC8363014, “OsMADS23 phosphorylated by SAPK9 confers drought and salt tolerance by regulating ABA biosynthesis in rice” (PLoS Genetics, 2021) can be followed below.

The target in this assay is T1, His-SAPK9 (rice, UniProt Q75V57 1-361).
T1 construct: SnRK2-type protein kinase SAPK9 from rice; source: E. coli DE3, pET-32a (+), purified
T1 sequence (looked up): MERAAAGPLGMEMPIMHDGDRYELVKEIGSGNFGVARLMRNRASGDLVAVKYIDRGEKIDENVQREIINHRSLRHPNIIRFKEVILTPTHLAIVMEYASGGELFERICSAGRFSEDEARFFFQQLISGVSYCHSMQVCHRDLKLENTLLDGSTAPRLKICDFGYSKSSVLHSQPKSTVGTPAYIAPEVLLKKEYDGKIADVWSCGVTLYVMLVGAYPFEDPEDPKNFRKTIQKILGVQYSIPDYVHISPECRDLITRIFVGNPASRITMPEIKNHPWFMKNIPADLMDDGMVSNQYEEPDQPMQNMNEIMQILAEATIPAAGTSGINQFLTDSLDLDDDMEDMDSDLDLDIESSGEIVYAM
Description: pull-down; 0.5 mg GST-OsMADS23 or GST on GST Bind Resin, 4°C, 2 h; then 0.5 mg purified His-SAPK9 for 2 h; three washes; western blot with anti-His. The conditions noted are these: both partners purified. A general note: A western blot detects proteins with antibodies after separation by electrophoresis.

B1: GST-tagged OsMADS23 (natural protein)
chain: not shown
notes: MADS-box transcription factor OsMADS23 from rice; Printed as GST-OsMADS23; also called GST-OsMADS23; source: E. coli BL21 (DE3), pGEX-4T-1, purified
B1: the binding result is “binds”.
